70 substances from US20170002055A1, “Novel peptides and combination of peptides for use in immunotherapy against ovarian cancer and other cancers” (immatics biotechnologies GmbH, priority 2015, published 2017) can be followed below.

The assay concerns the target HLA-A*02:01 (Homo sapiens, UniProt P04439, D140Y/D185E/D98H/E176V/E277Q/G131W/G231S/I119V/I121R/I166T/I218V/L300P/L318F/N151K/N90K/P208A/P217A/Q86G/Q94H/R138H/R169H/T345S). Nature of the assay: MHC binding assay (UV-ligand exchange, β2m ELISA, peptide exchange yield). The conditions noted are these: MHC class I binding score; binding to HLA-A*02:01 ranged by peptide exchange yield (UV-ligand exchange, β2m ELISA). In a few lines: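 Peptide–HLA-A*02:01 complexes were formed by UV-mediated exchange of a UV-cleavable ligand for the test peptide. Exchange yield was measured by capturing complexes on streptavidin, detecting with HRP anti-β2m antibody (1 h, 37°C) and reading TMB absorbance at 450 nm.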
(In general: ELISA stands for enzyme-linked immunosorbent assay.)
On to “304 (MTLGQIYYL; listed as Homo sapiens) [compound 304]”, for which the Peptide exchange result was ““+++” (≧50 = +++)”.
Under “305 (SIANFSEFYV; listed as Homo sapiens) [compound 305]” stands ““++++” (≧75% = ++++)”.
Under “306 (ALVNVQIPL; listed as Homo sapiens) [compound 306]” stands ““+++” (≧50 = +++)”.
Consider “307 (ALPVSLPQI; listed as Homo sapiens) [compound 307]”, for which the Peptide exchange entry was ““+++” (≧50 = +++)”.
For “308 (SQYSGQLHEV; listed as Homo sapiens) [compound 308]”, the Peptide exchange entry is reported as ““+++” (≧50 = +++)”.
On to “309 (GLFDGVPTTA; listed as Homo sapiens) [compound 309]”, for which the Peptide exchange entry is ““+++” (≧50 = +++)”.
Turning to “310 (FLVDTPLARA; listed as Homo sapiens) [compound 310]”, the Peptide exchange result is ““++++” (≧75% = ++++)”.
As to “311 (RLYTGMHTV; listed as Homo sapiens) [compound 311]”, the Peptide exchange entry is ““+++” (≧50 = +++)”.
With “312 (IISDLTIAL; listed as Homo sapiens) [compound 312]”, the Peptide exchange entry is ““+++” (≧50 = +++)”.
As for “313 (VLFDDELLMV; listed as Homo sapiens) [compound 313]”, the Peptide exchange entry was ““+++” (≧50 = +++)”.
As for “314 (ALIAEGIALV; listed as Homo sapiens) [compound 314]”, the Peptide exchange entry is ““+++” (≧50 = +++)”.
Regarding “315 (YLQDVVEQA; listed as Homo sapiens) [compound 315]”, the Peptide exchange result was ““+++” (≧50 = +++)”.
“316 (ILLERLWYV; listed as Homo sapiens) [compound 316]”: the Peptide exchange result is reported as ““+++” (≧50 = +++)”.
Turning to “317 (SLAALVVHV; listed as Homo sapiens) [compound 317]”, the Peptide exchange entry was ““+++” (≧50 = +++)”.
With “318 (GLINTGVLSV; listed as Homo sapiens) [compound 318]”, the Peptide exchange entry is reported as ““++” (≧20% = ++)”.
For “320 (KMFEFVEPLL; listed as Homo sapiens) [compound 320]”, the Peptide exchange entry is given as ““++++” (≧75% = ++++)”.
For the substance “321 (GLFEDVTQPGILL; listed as Homo sapiens) [compound 321]”, the Peptide exchange entry was ““++++” (≧75% = ++++)”.
Next, “322 (TLMTSLPAL; listed as Homo sapiens) [compound 322]”: ““+++” (≧50 = +++)”; “324 (FLYDEIEAEV; listed as Homo sapiens) [compound 324]”: ““+++” (≧50 = +++)”; “325 (FIMPATVADATAV; listed as Homo sapiens) [compound 325]”: ““+++” (≧50 = +++)”.
Under “326 (FLPEALDFV; listed as Homo sapiens) [compound 326]” stands ““+++” (≧50 = +++)”.
In the case of “327 (GLAPFTEGISFV; listed as Homo sapiens) [compound 327]”, the Peptide exchange entry is recorded as ““+++” (≧50 = +++)”.
Under “328 (ALNDQVFEI; listed as Homo sapiens) [compound 328]” stands ““+++” (≧50 = +++)”; under “329 (FLVTLNNVEV; listed as Homo sapiens) [compound 329]”, ““++++” (≧75% = ++++)”.
Under “330 (QLALKVEGV; listed as Homo sapiens) [compound 330]” stands ““+++” (≧50 = +++)”.
As to “331 (KVDTVWVNV; listed as Homo sapiens) [compound 331]”, the Peptide exchange entry was ““+++” (≧50 = +++)”.
Next, “332 (YLISELEAA; listed as Homo sapiens) [compound 332]”: ““+++” (≧50 = +++)”; “333 (FLPDANSSV; listed as Homo sapiens) [compound 333]”: ““++” (≧20% = ++)”.
Take “334 (TLTKVLVAL; listed as Homo sapiens) [compound 334]”: the Peptide exchange result is listed as ““+++” (≧50 = +++)”.
Consider “335 (YSLSSVVTV; listed as Homo sapiens) [compound 335]”, for which the Peptide exchange result was ““+++” (≧50 = +++)”.
Under “336 (ILLTAIVQV; listed as Homo sapiens) [compound 336]” stands ““+++” (≧50 = +++)”.
Under “337 (HLLSELEAAPYL; listed as Homo sapiens) [compound 337]” stands ““++++” (≧75% = ++++)”.
“339 (GLWEIENNPTVKA; listed as Homo sapiens) [compound 339]”: the Peptide exchange entry is ““++++” (≧75% = ++++)”.
Take “340 (ALLSMTFPL; listed as Homo sapiens) [compound 340]”: the Peptide exchange result is listed as ““++++” (≧75% = ++++)”.
For “341 (SQIALNEKLVNL; listed as Homo sapiens) [compound 341]”, the Peptide exchange entry is ““+++” (≧50 = +++)”.
In the case of “342 (HIYDKVMTV; listed as Homo sapiens) [compound 342]”, the Peptide exchange result is listed as ““+++” (≧50 = +++)”.
Next, “343 (SLLEVNEESTV; listed as Homo sapiens) [compound 343]”: ““+++” (≧50 = +++)”.
As to “344 (YLQDQHLLLTV; listed as Homo sapiens) [compound 344]”, the Peptide exchange entry is ““+++” (≧50 = +++)”.
For the substance “345 (VIWKALIHL; listed as Homo sapiens) [compound 345]”, the Peptide exchange result is recorded as ““+++” (≧50 = +++)”.
For “346 (LLDSKVPSV; listed as Homo sapiens) [compound 346]”, the Peptide exchange result is recorded as ““+++” (≧50 = +++)”.
Under “347 (SLFKHDPAAWEA; listed as Homo sapiens) [compound 347]” stands ““++++” (≧75% = ++++)”.
With “348 (ILLDVKTRL; listed as Homo sapiens) [compound 348]”, the Peptide exchange entry was ““++++” (≧75% = ++++)”.
“349 (SLTEYLQNV; listed as Homo sapiens) [compound 349]”: the Peptide exchange result is ““++++” (≧75% = ++++)”.
Regarding “350 (ALLDVTHSELTV; listed as Homo sapiens) [compound 350]”, the Peptide exchange result is reported as ““+++” (≧50 = +++)”.
Consider “351 (SLIPNLRNV; listed as Homo sapiens) [compound 351]”, for which the Peptide exchange entry is given as ““+++” (≧50 = +++)”.
Consider “352 (SLLELLHIYV; listed as Homo sapiens) [compound 352]”, for which the Peptide exchange entry is recorded as ““+++” (≧50 = +++)”.
On to “353 (YLFEMDSSL; listed as Homo sapiens) [compound 353]”, for which the Peptide exchange result is ““++” (≧20% = ++)”.
Take “354 (LILEGVDTV; listed as Homo sapiens) [compound 354]”: the Peptide exchange entry is ““++” (≧20% = ++)”.
With “355 (SIQQSIERLLV; listed as Homo sapiens) [compound 355]”, the Peptide exchange entry is recorded as ““++” (≧20% = ++)”.
Regarding “356 (KLLGKLPEL; listed as Homo sapiens) [compound 356]”, the Peptide exchange result was ““+++” (≧50 = +++)”.
Take “357 (SMHDLVLQV; listed as Homo sapiens) [compound 357]”: the Peptide exchange entry is on record as ““+++” (≧50 = +++)”.
Next, “358 (ALDEYTSEL; listed as Homo sapiens) [compound 358]”: ““++++” (≧75% = ++++)”; “359 (YLLPESVDL; listed as Homo sapiens) [compound 359]”: ““+++” (≧50 = +++)”.
Take “361 (ALYELEGTTV; listed as Homo sapiens) [compound 361]”: the Peptide exchange entry was ““+++” (≧50 = +++)”.
Consider “362 (TLYGLSVLL; listed as Homo sapiens) [compound 362]”, for which the Peptide exchange result is given as ““+++” (≧50 = +++)”.
For “363 (KVLDVSDLESV; listed as Homo sapiens) [compound 363]”, the Peptide exchange result is recorded as ““++” (≧20% = ++)”.
As for “364 (LLQNEQFEL; listed as Homo sapiens) [compound 364]”, the Peptide exchange entry was ““+++” (≧50 = +++)”.
As to “365 (YVIDQGETDVYV; listed as Homo sapiens) [compound 365]”, the Peptide exchange entry is listed as ““+++” (≧50 = +++)”.
As for “366 (RLLDMGETDLML; listed as Homo sapiens) [compound 366]”, the Peptide exchange result is reported as ““+++” (≧50 = +++)”.
For the substance “367 (SLQNHNHQL; listed as Homo sapiens) [compound 367]”, the Peptide exchange entry is given as ““+++” (≧50 = +++)”.
With “369 (GLFPEHLIDV; listed as Homo sapiens) [compound 369]”, the Peptide exchange result is reported as ““+++” (≧50 = +++)”.
Take “370 (SLLQDLVSV; listed as Homo sapiens) [compound 370]”: the Peptide exchange result was ““+++” (≧50 = +++)”.
Under “371 (FLQAHLHTA; listed as Homo sapiens) [compound 371]” stands ““++++” (≧75% = ++++)”.
Next, “372 (TMLLNIPLV; listed as Homo sapiens) [compound 372]”: ““++” (≧20% = ++)”; “373 (SLLEDKGLAEV; listed as Homo sapiens) [compound 373]”: ““++” (≧20% = ++)”.
Regarding “374 (FLLQQHLISA; listed as Homo sapiens) [compound 374]”, the Peptide exchange entry was ““++” (≧20% = ++)”.
As for “375 (SLTETIEGV; listed as Homo sapiens) [compound 375]”, the Peptide exchange entry is listed as ““++” (≧20% = ++)”.
“376 (AMFESSQNVLL; listed as Homo sapiens) [compound 376]”: the Peptide exchange result is reported as ““++” (≧20% = ++)”.
For the substance “377 (FLLDSSASV; listed as Homo sapiens) [compound 377]”, the Peptide exchange entry is ““++” (≧20% = ++)”.
Next, “378 (ALGYFVPYV; listed as Homo sapiens) [compound 378]”: ““+++” (≧50 = +++)”.
